Assay results from the supplement of paper PMC10126150.
± gives the standard deviation of the averaged measurements.

Tested on: ATP
Experiment: switch fluorescence ratio, 500 uM ATP over buffer (Cy3 cluster intensity, sum of 5 cycles each) (fold (ratio)); higher = stronger signal-on switching upon ATP binding; sequences stand for … in TCGTCGGCAGCGTCAGATGTGTATAAGAGACAGTTTTTTTTTTTTTTTTTTTTTTTTT…TC
Conditions: aptamer strand: ATP DNA aptamer (quencher-CACCTGGGGGAGTATTGCGGAGGAAGG + anchor), 100 nM annealed; ATP concentration: 500 uM
Method in brief: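 The fluorescence ratio divides summed target-cycle Cy3 intensity by summed buffer-cycle Cy3 intensity for each cluster and is averaged per switch-domain sequence. Cy3-labelled switching-strand clusters on a modified Illumina MiSeq flow-cell were annealed to 100 nM quencher-labelled ATP aptamer, then imaged in selection buffer and again after 15 min with 500 uM ATP at 22 °C. Five such cycles were run, with NaOH stripping and re-annealing between them, and clusters outside 100-1000 RFU were excluded.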
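Also: ATP exposure 15 min at 22 °C before imaging.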

Sequence	switch fluorescence ratio
AAGCAATGGG	1.45 ± 0.037
CAAGAGGGGC	1 ± 0.026
AGGGGTTAAA	1.01 ± 0.022
TTCTTTGATT	1 ± 0.011
GGGTTGGATG	0.996 ± 0.025
GTATGGGGGC	0.974 ± 0.063
ATCGGTCGGG	1.011 ± 0.0088
GATTTTGT	0.969 ± 0.037
TATGTTTT	1.02 ± 0.016
CGGGCCGACT	1.01 ± 0.039
GAGAATTTGT	0.978 ± 0.033
TTTTATTTA	0.9701 ± 0.0072
TTGGGTATAT	0.979 ± 0.037
TCCACATCAA	1.197 ± 0.0086
CACGGGGCGC	0.977 ± 0.046
ATAAGGGCTA	0.99 ± 0.031
AAGGGTGTGT	0.961 ± 0.032
CGTTCTATGT	1.01 ± 0.02
GATGGGGGGT	1 ± 0.022
ATGAAAAAAT	0.974 ± 0.015
AACGTAAATT	1.33 ± 0.31
TTGCCGGGTT	1.17 ± 0.17
CTTTGTCGCT	1.01 ± 0.029
CGGTCAAAAA	1.03 ± 0.033
TTTGTTAATA	1.02 ± 0.014

Sequence	switch fluorescence ratio
TCCATGGGGT	0.9836 ± 0.0079
AGTCGGGGGA	1.01 ± 0.023
ATTATGGGT	0.9931 ± 0.0086
AAAATGTTTC	1.02 ± 0.02
CTGTCCAGTT	1.02 ± 0.048
TTGCGGGCAG	1.04 ± 0.032
TGAGGTTAGT	1.09 ± 0.19
CCTTATCAGG	1.04 ± 0.02
GAGTTTAATT	0.999 ± 0.038
ATCAGGTGGT	1.19 ± 0.036
TTTATAAATG	1.014 ± 0.0017
TAGGTCGGTG	0.993 ± 0.011
GCGGTCACGG	0.9974 ± 0.0092
TTCTGGCACG	1.12 ± 0.18
CATTACTTTT	1.01 ± 0.014
TGGTGCAGGG	0.984 ± 0.015
ACACGGTCTA	1.01 ± 0.04
GCAGGTGAGG	1.18 ± 0.044
TGGTCCTAGT	0.975 ± 0.017
CGGGTTTCAC	1 ± 0.003
TTGTTTGTGT	1.02 ± 0.03
GGGGTTTGAT	0.996 ± 0.021
TGGTTTAATA	0.9853 ± 0.0079
GCCAGAGAGT	1.01 ± 0.012
AGAGATTCAC	1.03 ± 0.013

Sequence	switch fluorescence ratio
GTAGAGGGGG	0.989 ± 0.014
GAGAGGCACA	1.02 ± 0.051
CGGTTTGTCT	0.986 ± 0.018
GGGTTTGGAT	0.984 ± 0.025
TTGATTTAAA	1.01 ± 0.0047
AAGCTTGTTG	0.992 ± 0.038
TACAGATTTG	1.01 ± 0.037
AATTGCCGTG	0.99946 ± 0.00023
ACCGTTTTTT	1 ± 0.017
TGAGTGGGTT	0.975 ± 0.031
ACCACAAAGG	1.48 ± 0.61
TTAATAAGGG	1 ± 0.024
ATTGATTCAA	0.996 ± 0.02
AAAGGCGCTG	0.984 ± 0.041
GATACCTTTG	1.72 ± 1
TGTTGTCTTT	1.03 ± 0.12
GGAAGTGGCA	1.01 ± 0.041
GGTTGTTTGG	0.989 ± 0.02
TTTTGTTCCT	1.02 ± 0.026
GGGGGGGACC	0.999 ± 0.017
TTGGTGCTGG	1.01 ± 0.027
TCGTATTGGT	1.02 ± 0.023
ATGCTATGTA	1.01 ± 0.033
TGGGTATAT	1.01 ± 0.011
TTTGGTGATT	0.982 ± 0.025

Sequence	switch fluorescence ratio
TCCTTCTTTA	1.38 ± 0.43
AGACTTTAGT	1.01 ± 0.036
GGTCGCATTC	1.05 ± 0.047
CTTTTATTGG	1 ± 0.029
GCTTCAGGGT	0.989 ± 0.025
TGATGGAGGG	0.997 ± 0.026
ATGATCAAAT	1 ± 0.054
GGGGGTATTT	1 ± 0.018
GCGGAAAAAG	0.957 ± 0.011
GATTAAAGCT	1.11 ± 0.039
TTGGTAGTTT	1.022 ± 0.0061
GCCCTGGAAC	1.01 ± 0.022
TATGCTGGAT	1.02 ± 0.059
ATCGATTTCT	1.004 ± 0.0049
GCAGGTGGAG	1.02 ± 0.06
GCCTTCGACT	1.051 ± 0.0017
GCAAGCTAGG	1.03 ± 0.017
ACATTATCCA	1.01 ± 0.0068
TTATGTGTTT	1.014 ± 0.006
GTGTATTATT	0.976 ± 0.02
CAATAGGGGG	1 ± 0.027
GGAGTTATAA	1.05 ± 0.034
GGGTGATCGG	0.984 ± 0.023
ATGTCTTGGC	0.998 ± 0.03
TTCGGCTTTT	0.983 ± 0.024
